From patent US5869641

Target: CD4 (extracellular domain, aa 1-370) (Homo sapiens) (UniProt P01730)
Assay: flow
Details: 2'-F on all C and U; +-0.08; multimeric SA-PE complex, 3.2 RNA per SA-PE; L200-CD4 beads, PBS, 2 mM MgCl2, BSA, room temp

GGGAGACAAGAAUAAACGCUCAANNNNNNNNNNNNNNNNNNNNNNNNNNNNNNNNNNNNNNNNUUCGACAGGAGGCUCACAACAGGC [15th round enriched RNA pool]
Kd: 1.5 nM
